We go through 7 molecules from PMC5021521, “Coordinated recruitment of Spir actin nucleators and myosin V motors to Rab11 vesicle membranes” (eLife, 2016).

In one experiment the test system is GST-Rab11a-Q70L. As to the kind of experiment: GST-pulldown from HEK293 lysates. The conditions noted are these: N = 2; for pulldown by GST-Rab11a-Q70L in words, with Q1753R mutant MyoVa: HEK293 lysates with GFP-MyoVa-Q1753R in place of GFP-MyoVa-FL. In kind it is binding. How it is done: HEK293 cells were co-transfected with expression vectors encoding Myc-Spir-2-FL, mStrawberry-FMN2-FH2-FSI, eGFP-MyoVa-D-FL and eGFP-MyoVa-D-Q1753R, respectively. 24 hr post transfection, cells were lysed in lysis buffer (25 mM Tris-HCl pH 7.4, 150 mM NaCl, 5 mM MgCl2, 10% (v/v) glycerol, 0.1% (v/v) Nonidet P-40, 1 mM PMSF, protease inhibitor cocktail) and centrifuged at 20,000 x g, 4°C, 20 min to remove insoluble debris. For GST-pulldown assays 65 µg GST-Rab11a-Q70L protein (25 µg GST control) was coupled to GSH-Sepharose 4B beads (1:1 suspension) for 1 hr, 4°C on a rotating wheel. Beads were washed twice with pulldown buffer (25 mM Tris-HCl pH 7.4, 150 mM NaCl, 5 mM MgCl2, 10% (v/v) glycerol, 0.1% (v/v) Nonidet P-40) and subsequently incubated with the cell lysates for 2 hr at 4°C on a rotating wheel. Beads were washed four times with pulldown buffer and bound proteins were eluted with 1x Laemmli buffer and denatured at 95°C for 10 min, then were analyzed by immunoblotting.

The test system of a further experiment is GFP-MyoVb-GTD. As to the kind of experiment: Co-immunoprecipitation from HEK293 cells. In kind it is binding, Homo sapiens. To be noted: anti-Myc co-IP, HEK293, immunoblot. How it is done:
HEK293 cells were transfected with expression vectors encoding Myc-tagged Spir proteins and GFP-tagged myosin Va and myosin Vb fragments. 48 hr post transfection, cells were lysed in lysis buffer (25 mM Tris-HCl pH 7.4, 150 mM NaCl, 5 mM MgCl2, 10% (v/v) glycerol, 0.1% (v/v) Nonidet P-40, 1 mM Phenylmethylsulfonylfluorid (PMSF; Sigma-Aldrich), protease inhibitor cocktail (complete mini, EDTA-free; Roche, Penzberg, Germany)) and centrifuged at 20,000 x g, 4°C, 20 min to remove insoluble debris. The clarified supernatant was incubated with 4 µg anti-c-Myc antibody (9E10, mouse monoclonal; Santa Cruz Biotechnology; RRID: AB_627268) for 1 hr on ice. Subsequently, 40 µl Protein G-Agarose beads (1:1 suspension; Roche) were added and incubated for 2 hr at 4°C on a rotating wheel. Beads were washed with pulldown buffer (25 mM Tris-HCl pH 7.4, 150 mM NaCl, 5 mM MgCl2, 10% (v/v) glycerol, 0.1% (v/v) Nonidet P-40). Bound proteins were eluted with 1x Laemmli buffer and denatured for 10 min at 95°C, then analyzed by immunoblotting.
In general terms: Immunoblotting shows a protein as a band on a membrane.

In another experiment the test system is HeLa cells. Kind of experiment: Subcellular localization by fluorescence microscopy. In kind it is cell-based. On the procedure:
(§1) HeLa cells were seeded on microscope cover glasses and transfected with Myc-epitope-tagged Spir-2 proteins and fluorescently-tagged MyoV and Rab11 proteins as described above. Cells were fixed with paraformaldehyde (3.7% in 1x PBS) for 20 min at 4°C and subsequently permeabilized using 0.2% Triton X-100 (in 1x PBS) for 3.5 min, room temperature. Cells were incubated with anti-c-Myc antibody (9E10, mouse monoclonal, 2 µg/ml, Santa Cruz Biotechnology; RRID: AB_627268) for 1 hr at room temperature and conjugated anti-mouse secondary antibodies (Cy5; from donkey, 3.25 µg/ml, Dianova (RRID: AB_2340820) and TRITC; from donkey, 3.125 µg/ml, Dianova (RRID: AB_2340767)) for 1 hr at room temperature avoiding exposure to light. Finally, cells were mounted on microscope slides with Mowiol and analyzed with a Leica AF6000LX fluorescence microscope, equipped with a Leica HCX PL APO 63x/1.3 GLYC objective and a Leica DFC350 FX digital camera (1392 × 1040 pixels, 6.45 × 6.45 µm pixel size). 3D stacks were recorded and processed with the Leica deconvolution software module. In case of the MyoVa autoregulation/activation experiments, we quantified the MyoVa expression levels. […] In order to clearly distinguish between vesicular and cytoplasmic MyoVa localization, we imaged either high or low expressing cells and determined the sum of pixel gray values per cell as a measure for the MyoVa expression levels. Based on that, we only used cells for the autoregulation analysis having a sum of pixel gray values less than 20 × 10^6 for the expression of GFP-MyoVa-D-FL. Images were recorded using the Leica LASX software and further processed with Adobe Photoshop and subsequently assembled with Adobe Illustrator.

The subject of the next experiment is mStrawberry-Rab11a. As to the kind of experiment: Colocalization with Rab11 in HeLa cells, Pearson's correlation coefficient. In kind it is cell-based, Mus musculus. On the procedure:
as §1
The extent of colocalization of Rab11, Spir-2 and MyoVa was analyzed using the ImageJ (V2.0.0) plug-in Coloc 2. Here, the colocalization rate is indicated by the Pearson’s Correlation Coefficient (PCC) as a statistical measure to unravel a linear correlation between the intensity of different fluorescent signals. […] To take the noise of each image into account and to gain an objective evaluation of PCC significance, a Costes significance test was performed. Therefore, the pixels in one image were scrambled randomly and the correlation with the other (unscrambled) image was measured. […] Statistical data analysis was performed using SPSS 22 (IBM, Armonk, NY, USA).

On to “Straw-FMN2-FH2-FSI: mStrawberry-tagged C-terminal formin-2, aa 1135 - 1578”, for which the “pulldown by GST-Rab11a-Q70L in words” value with GST-Rab11a-Q70L (HEK293 lysates over-expressing Myc-Spir-2, Straw-FMN2-FH2-FSI and GFP-MyoVa-FL) is recorded as “able to pull down”. The “pulldown by GST-Rab11a-Q70L in words, with Q1753R mutant MyoVa” value with GST-Rab11a-Q70L is listed as “Only faint”.
Regarding “GFP-MyoVa-Q1753R: eGFP-tagged full-length MyoVa with Q1753R mutation, which disrupts interaction with Rab11”, in the experiment with GST-Rab11a-Q70L, the “pulldown by GST-Rab11a-Q70L in words, with Q1753R mutant MyoVa” value was “but not the GFP-MyoVa-Q1753R mutant”.

B1: 398 714: C-terminal Spir-2 deletion mutant (protein)
chain: GSAQRPRPRVLLKAPTLAEMEEMNTSEEEESPCGEVTLKRDRSFSEHDLAQLRSEVASGLQSATHPPGGTEPPRPRAGSAHVWRPGSRDQGTCPASVSDPSHPLLSNRGSSGDRPEASMTPDAKHLWLEFSHPVESLALTVEEVMDVRRVLVKAEMEKFLQNKELFSSLKKGKICCCCRAKFPLFSWPPSCLFCKRAVCTSCSIKMKMPSKKFGHIPVYTLGFESPQRVSAAKTAPIQRRDIFQSLQGPQWQSVEEAFPHIYSHGCVLKDVCSECTSFVADVVRSSRKSVDVLNTTPRRSRQTQSLYIPNTRTLDFK
modifications: left off: Myc epitope, end not stated, kept
notes: C-terminal Spir-2 deletion mutant
As to B1, the “co-precipitation / interaction with MyoVb-GTD in words” value (shortened to “co-precipitation / interaction”) in the experiment on GFP-MyoVb-GTD is listed as “show myosin V co-precipitation”.

B2: 1 423: N-terminal Spir-2 deletion mutant (protein)
chain: ARAGSCGGAAAGAGRPEPWELSLEEVLKAYEQPLNEEQAWAVCFQGCRGLRGSPGRRLRDTGDLLLRGDGSVGAREPEAAEPATMVVPLASSEAQTVQSLGFAIYRALDWGLDESEERELSPQLERLIDLMANNDSEDSGCGAADEGYGGPEEEEEAEGVPRSVRTFAQAMRLCAARLTDPRGAQAHYQAVCRALFVETLELRAFLARVREAKEMLQKLREDEPHLETPRAELDSLGHTDWARLWVQLMRELRRGVKLKKVQEQEFNPLPTEFQLTPFEMLMQDIRARNYKLRKVMVDGDIPPRVKKDAHELILDFIRSRPPLKQVSERRLRPLPPKQRSLHEKILEEIKQERRLRPVRGEGWAARGFGSLPCILNACSGDAKSTSCINLSVTDAGGSAQRPRPRVLLKAPTLAEMEEMNTS
modifications: left off: Myc epitope, end not stated, kept
notes: N-terminal Spir-2 deletion mutant
Turning to B2, the “co-precipitation / interaction” value with GFP-MyoVb-GTD is “show myosin V co-precipitation”.

B3: Myc-Spir-2-KIND-WH2: Myc-hs-Spir2-KIND-WH2 aa 2 - 410 (protein)
chain: ARAGSCGGAAAGAGRPEPWELSLEEVLKAYEQPLNEEQAWAVCFQGCRGLRGSPGRRLRDTGDLLLRGDGSVGAREPEAAEPATMVVPLASSEAQTVQSLGFAIYRALDWGLDESEERELSPQLERLIDLMANNDSEDSGCGAADEGYGGPEEEEEAEGVPRSVRTFAQAMRLCAARLTDPRGAQAHYQAVCRALFVETLELRAFLARVREAKEMLQKLREDEPHLETPRAELDSLGHTDWARLWVQLMRELRRGVKLKKVQEQEFNPLPTEFQLTPFEMLMQDIRARNYKLRKVMVDGDIPPRVKKDAHELILDFIRSRPPLKQVSERRLRPLPPKQRSLHEKILEEIKQERRLRPVRGEGWAARGFGSLPCILNACSGDAKSTSCINLSVTDAGGSAQRPRPRVLLK
modifications: left off: Myc epitope, end not stated, kept
Consider B3, for which the “subcellular localization in words” value in the experiment with HeLa cells (co-expression of eGFP-MyoVa-FL and N-terminal Spir-2 fragment) was “both cytosolic”; in the experiment on HeLa cells (single expression), “even cytoplasmic and nuclear localization”.

B4: Myc-Spir2-SB-FYVE: Myc-hs-Spir2-SB-FYVE aa 438 - 714, lacks the MyoV binding motif (protein)
chain: DRSFSEHDLAQLRSEVASGLQSATHPPGGTEPPRPRAGSAHVWRPGSRDQGTCPASVSDPSHPLLSNRGSSGDRPEASMTPDAKHLWLEFSHPVESLALTVEEVMDVRRVLVKAEMEKFLQNKELFSSLKKGKICCCCRAKFPLFSWPPSCLFCKRAVCTSCSIKMKMPSKKFGHIPVYTLGFESPQRVSAAKTAPIQRRDIFQSLQGPQWQSVEEAFPHIYSHGCVLKDVCSECTSFVADVVRSSRKSVDVLNTTPRRSRQTQSLYIPNTRTLDFK
modifications: left off: Myc epitope, end not stated, kept
As for B4, the PCC with mStrawberry-Rab11a (GFP-MyoVa-CC-GTD + mStraw-Rab11 + Myc-Spir2-SB-FYVE (first block, r34), cell 1) amounted to 0.63; in the experiment on mStrawberry-Rab11a (GFP-MyoVa-CC-GTD + mStraw-Rab11 + Myc-Spir2-SB-FYVE (first block, r34), cell 2) it was 0.74; with mStrawberry-Rab11a (GFP-MyoVa-CC-GTD + mStraw-Rab11 + Myc-Spir2-SB-FYVE (first block, r34), cell 3), 0.59; in the experiment on mStrawberry-Rab11a (GFP-MyoVa-CC-GTD + mStraw-Rab11 + Myc-Spir2-SB-FYVE (first block, r34), cell 4) it was 0.23. In addition, the “Pearson's correlation coefficient (PCC), mean” value in the experiment on mStrawberry-Rab11a (GFP-MyoVa-CC-GTD + mStraw-Rab11 + Myc-Spir2-SB-FYVE (first block, r34), mean of 4 cells) is on record as 0.5475. Further, the “colocalization with Rab11 in words” value with mStrawberry-Rab11a (co-expression of Spir-2-SB-FYVE, MyoVa-CC-GTD and Rab11a, HeLa cells) was “significant reduction”.

B5: Spir-1: Myc-hs-Spir1 aa 2 - 757, full-length (protein)
chain: MANTVEADGSKDEGYEAADEGPEDEDGEKRSISAIRSYQDVMKICAAHLPTESEAPNHYQAVCRALFAETMELHTFLTKIKSAKENLKKIQEMEKGDESSTDLEDLKNADWARFWVQVMRDLRNGVKLKKVQQRQYNPLPIEYQLTPYEMLMDDIRCKRYTLRKVMVNGDVPPRLKKSAHEVILDFIRSRPPLNPVSARKLKPTPPRPRSLHERILEEIKAERKLRPVSPEEIRRSRLVRPLSMSHSFDLSDVTTPESPKNVGESSMVNGGLTSQTKENGLSAAQQGSAQRKRLLKAPTLAELDSSDSEEEKSLHKSTSSSSASPSLYEDPVLEAMCSRKKPPKFLPISSTPQPERRQPPQRRHSIEKETPTNVRQFLPPSRQSSRSLEEFCYPVECLALTVEEVMHIRQVLVKAELEKYQQYKDVYTALKKGKLCFCCRTRRFSFFTWSYTCQFCKRPVCSQCCKKMRLPSKPYSTLPIFSLGPSALQRGESCSRSEKPSTSHHRPLRSIARFSTKSRSVDKSDEELQFPKELMEDWSTMEVCVDCKKFISEIISSSRRSLVLANKRARLKRKTQSFYMSSAGPSEYCPSERTINEI
On to B5, for which, in the experiment on GFP-MyoVb-GTD, the “co-precipitation / interaction” value is on record as “did interact with the GFP-MyoVb-GTD”.
